Laboratory results as given in PMC4942255, “MutSα maintains the mismatch repair capability by inhibiting PCNA unloading”.

Experiments:
Test in all cases: SPR; no nucleotide or Mg2+ listed in running buffer; n = 2; SPR (BIACORE 3000): 20 mM Hepes-NaOH pH 7.5, 100 mM NaCl, 1 mM DTT, 0.005% Tween-20; 20 μl/min, 3 min association and 3 min dissociation; temperature not stated
Conditions in all cases: protein: recombinant; tags: C-terminal FLAG on xMsh6; copies: 1;1; label: 3' biotin on strand 1; blunt, A:C mismatch (A at strand 1 position 22, C in strand 2)
[1] = biological target: xMutSα ΔN (xMsh2-xMsh6ΔN-FLAG) (Xenopus laevis, UniProt A0A1B4WRB1;A0A1B4WRB2 1-932;=M+324-1340, internal_change)
Chain of xMutSα ΔN (xMsh2-xMsh6ΔN-FLAG) (chain, as listed by the source | mutant, chain 1 of 2): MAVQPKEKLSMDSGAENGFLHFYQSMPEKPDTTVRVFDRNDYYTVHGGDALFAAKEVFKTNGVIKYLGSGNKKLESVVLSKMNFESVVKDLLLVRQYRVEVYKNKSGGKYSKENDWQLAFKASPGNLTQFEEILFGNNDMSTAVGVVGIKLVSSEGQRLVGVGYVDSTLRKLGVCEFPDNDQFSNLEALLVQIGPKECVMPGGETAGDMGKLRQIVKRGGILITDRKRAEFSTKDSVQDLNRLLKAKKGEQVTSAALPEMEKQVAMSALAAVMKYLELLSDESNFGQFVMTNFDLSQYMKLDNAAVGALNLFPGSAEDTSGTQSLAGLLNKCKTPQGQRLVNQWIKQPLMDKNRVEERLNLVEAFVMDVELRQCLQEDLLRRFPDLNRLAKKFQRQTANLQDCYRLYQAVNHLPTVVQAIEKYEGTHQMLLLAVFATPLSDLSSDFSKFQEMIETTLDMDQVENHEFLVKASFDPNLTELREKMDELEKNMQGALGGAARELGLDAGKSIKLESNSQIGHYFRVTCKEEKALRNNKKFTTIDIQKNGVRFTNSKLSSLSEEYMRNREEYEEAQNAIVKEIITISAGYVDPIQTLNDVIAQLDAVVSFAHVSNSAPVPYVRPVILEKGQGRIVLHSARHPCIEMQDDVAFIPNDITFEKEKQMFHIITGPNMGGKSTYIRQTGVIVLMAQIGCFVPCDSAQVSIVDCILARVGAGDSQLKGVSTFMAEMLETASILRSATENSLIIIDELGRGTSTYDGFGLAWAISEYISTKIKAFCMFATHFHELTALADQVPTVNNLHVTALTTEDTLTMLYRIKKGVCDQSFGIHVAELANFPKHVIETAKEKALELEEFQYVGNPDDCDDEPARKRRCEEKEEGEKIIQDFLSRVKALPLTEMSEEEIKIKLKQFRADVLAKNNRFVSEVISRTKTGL
Chain of xMutSα ΔN (xMsh2-xMsh6ΔN-FLAG) (chain, as listed by the source | mutant, chain 2 of 2): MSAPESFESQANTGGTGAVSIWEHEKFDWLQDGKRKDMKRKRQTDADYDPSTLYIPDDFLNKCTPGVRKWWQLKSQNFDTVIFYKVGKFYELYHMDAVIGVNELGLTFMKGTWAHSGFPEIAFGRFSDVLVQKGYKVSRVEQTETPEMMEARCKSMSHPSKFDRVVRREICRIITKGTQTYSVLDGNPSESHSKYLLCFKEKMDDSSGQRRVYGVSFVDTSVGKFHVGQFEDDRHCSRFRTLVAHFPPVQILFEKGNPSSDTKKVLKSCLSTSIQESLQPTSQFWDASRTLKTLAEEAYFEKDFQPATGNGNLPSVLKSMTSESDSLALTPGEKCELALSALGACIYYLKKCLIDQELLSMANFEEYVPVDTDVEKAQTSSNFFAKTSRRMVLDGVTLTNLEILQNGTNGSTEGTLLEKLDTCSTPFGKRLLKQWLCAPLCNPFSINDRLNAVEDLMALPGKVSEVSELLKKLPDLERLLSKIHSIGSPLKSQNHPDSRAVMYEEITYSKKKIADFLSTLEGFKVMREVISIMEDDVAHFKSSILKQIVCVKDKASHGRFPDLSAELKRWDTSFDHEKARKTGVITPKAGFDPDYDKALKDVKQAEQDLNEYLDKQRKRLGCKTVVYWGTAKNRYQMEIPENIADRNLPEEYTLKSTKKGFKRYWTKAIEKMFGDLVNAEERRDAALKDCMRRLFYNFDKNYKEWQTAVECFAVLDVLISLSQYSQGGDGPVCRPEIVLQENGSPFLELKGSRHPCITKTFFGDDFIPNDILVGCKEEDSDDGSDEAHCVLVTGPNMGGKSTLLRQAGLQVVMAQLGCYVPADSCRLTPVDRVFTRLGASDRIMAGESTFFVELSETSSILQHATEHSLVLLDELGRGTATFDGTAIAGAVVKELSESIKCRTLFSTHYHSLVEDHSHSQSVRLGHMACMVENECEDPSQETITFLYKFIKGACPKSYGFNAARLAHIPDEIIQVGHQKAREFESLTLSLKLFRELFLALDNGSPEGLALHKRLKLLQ

[2] = biological target: xMutSα PIP (xMsh2-xMsh6PIP-FLAG) (Xenopus laevis, UniProt A0A1B4WRB1;A0A1B4WRB2 1-932;1-1340, Q4A;F10A;F11A)
Chain of xMutSα PIP (xMsh2-xMsh6PIP-FLAG) (chain, as listed by the source Q4A;F10A;F11A, chain 1 of 2): as the sequence (chain, as listed by the source | mutant, chain 1 of 2) above
Chain of xMutSα PIP (xMsh2-xMsh6PIP-FLAG) (chain, as listed by the source Q4A;F10A;F11A, chain 2 of 2): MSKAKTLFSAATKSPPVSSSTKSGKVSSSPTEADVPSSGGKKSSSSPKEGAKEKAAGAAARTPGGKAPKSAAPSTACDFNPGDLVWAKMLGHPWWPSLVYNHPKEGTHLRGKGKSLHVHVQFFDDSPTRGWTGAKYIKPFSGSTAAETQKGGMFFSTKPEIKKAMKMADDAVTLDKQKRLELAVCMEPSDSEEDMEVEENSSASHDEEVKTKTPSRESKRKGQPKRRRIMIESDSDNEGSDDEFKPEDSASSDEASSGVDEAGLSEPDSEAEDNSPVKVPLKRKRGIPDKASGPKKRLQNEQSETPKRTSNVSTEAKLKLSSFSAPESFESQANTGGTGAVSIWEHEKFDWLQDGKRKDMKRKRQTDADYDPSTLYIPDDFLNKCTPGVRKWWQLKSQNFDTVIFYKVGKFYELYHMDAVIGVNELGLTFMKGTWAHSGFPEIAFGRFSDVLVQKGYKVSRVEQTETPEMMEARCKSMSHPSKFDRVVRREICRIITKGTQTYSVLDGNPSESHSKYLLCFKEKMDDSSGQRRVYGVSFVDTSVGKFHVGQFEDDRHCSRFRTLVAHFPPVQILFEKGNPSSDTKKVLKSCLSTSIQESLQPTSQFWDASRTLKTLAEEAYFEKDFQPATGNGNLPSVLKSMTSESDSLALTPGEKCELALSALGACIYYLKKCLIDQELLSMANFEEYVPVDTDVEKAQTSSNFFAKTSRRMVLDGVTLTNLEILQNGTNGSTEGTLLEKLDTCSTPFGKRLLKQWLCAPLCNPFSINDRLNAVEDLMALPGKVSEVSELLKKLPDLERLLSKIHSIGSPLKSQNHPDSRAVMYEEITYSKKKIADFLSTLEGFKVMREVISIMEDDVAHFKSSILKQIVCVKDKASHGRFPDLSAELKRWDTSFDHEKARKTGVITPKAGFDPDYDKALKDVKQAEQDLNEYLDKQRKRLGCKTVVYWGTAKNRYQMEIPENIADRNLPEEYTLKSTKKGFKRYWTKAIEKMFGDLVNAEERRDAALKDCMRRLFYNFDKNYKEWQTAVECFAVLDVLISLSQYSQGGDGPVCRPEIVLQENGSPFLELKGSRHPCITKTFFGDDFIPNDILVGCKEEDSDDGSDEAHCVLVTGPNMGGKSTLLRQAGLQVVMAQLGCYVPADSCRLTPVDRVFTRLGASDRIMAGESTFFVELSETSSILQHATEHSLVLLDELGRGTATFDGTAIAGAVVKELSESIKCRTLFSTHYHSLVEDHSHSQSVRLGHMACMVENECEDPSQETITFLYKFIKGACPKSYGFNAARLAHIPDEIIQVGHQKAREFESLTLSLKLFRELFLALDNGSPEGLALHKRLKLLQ

[3] = biological target: xMutSα WT (xMsh2-xMsh6-FLAG) (Xenopus laevis, UniProt A0A1B4WRB1;A0A1B4WRB2 1-932;1-1340)

B1: 42 bp A:C mismatch oligo DNA (dsDNA)
DNA 1: GGGTGACCGTACTGCATCTCGAGATCCATGTTACTGCGTCAG
DNA 2: CTGACGCAGTAACATGGATCCCGAGATGCAGTACGGTCACCC
Kd [1]: 3.6 nM
Kd [2]: 4.4 nM
Kd [3]: 2.2 nM
